The values below are quoted from earlier work in paper PMC3490216.

A word on the Kd: it is the constant that tells how readily two partners part at equilibrium.

The target in data set [1] is VPAC2 receptor (UniProt P41587).
Data set [2] concerns the target VPAC1 receptor (UniProt P32241).
Chain of UniProt P32241 (P32241 31-457): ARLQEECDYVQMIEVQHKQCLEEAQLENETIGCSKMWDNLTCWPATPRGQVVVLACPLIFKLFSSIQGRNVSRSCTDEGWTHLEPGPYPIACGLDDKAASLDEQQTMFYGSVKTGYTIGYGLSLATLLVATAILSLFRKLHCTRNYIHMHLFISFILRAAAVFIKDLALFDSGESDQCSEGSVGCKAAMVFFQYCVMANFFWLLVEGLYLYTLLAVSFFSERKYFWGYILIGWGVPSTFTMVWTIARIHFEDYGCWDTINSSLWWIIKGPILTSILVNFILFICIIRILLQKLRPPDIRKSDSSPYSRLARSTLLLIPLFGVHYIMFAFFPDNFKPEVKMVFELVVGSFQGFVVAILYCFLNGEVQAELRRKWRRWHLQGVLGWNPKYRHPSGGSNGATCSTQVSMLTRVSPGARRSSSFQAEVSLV

Chain of UniProt P41587 (P41587 24-438): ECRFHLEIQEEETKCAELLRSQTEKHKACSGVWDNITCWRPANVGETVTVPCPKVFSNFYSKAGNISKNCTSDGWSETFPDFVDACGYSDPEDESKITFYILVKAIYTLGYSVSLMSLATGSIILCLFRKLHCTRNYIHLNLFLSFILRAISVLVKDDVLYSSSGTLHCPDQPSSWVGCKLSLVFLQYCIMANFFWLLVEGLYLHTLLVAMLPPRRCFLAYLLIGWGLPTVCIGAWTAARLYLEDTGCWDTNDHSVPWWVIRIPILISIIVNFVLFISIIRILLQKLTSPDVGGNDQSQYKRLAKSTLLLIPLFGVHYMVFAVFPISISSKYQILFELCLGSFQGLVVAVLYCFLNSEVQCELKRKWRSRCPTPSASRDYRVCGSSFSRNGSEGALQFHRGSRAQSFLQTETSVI

As for VIP (from UniProt P01282), the Kd in data set [1] and in data set [2] was 3 nM each time.
